Data reported in the supplement of paper PMC5998384.

Tests used:
[1] = test system: HeLa Kyoto; assay: solubility in G1/S (NP-40 vs SDS abundance) (log2 ratio); higher = more soluble; settings: cell cycle stage: G1/S
[2] = test system: HeLa Kyoto; assay: melting temperature (median over replicates), in situ; higher = more thermally stable
[3] = test system: HeLa Kyoto; assay: solubility change mitosis vs G1/S (difference of NP-40 vs SDS log2 ratios) (log2 ratio difference); higher = more soluble in mitosis
[4] = test system: HeLa Kyoto; assay: thermal stability score vs G1/S (z-score of summed log2 fold changes over temperatures); higher = more thermally stable than in G1/S
[5] = cell cycle stage: early G1 (4.5 h after nocodazole release)
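Wherever melting temperature (median over replicates), in situ is given: HeLa Kyoto cells synchronized by double thymidine or nocodazole block, proteins quantified by TMT10plex mass spectrometry, three independent biological replicates.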
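Wherever solubility change mitosis vs G1/S (difference of NP-40 vs SDS log2 ratios) is given: synchronized HeLa Kyoto cells (double thymidine block for G1/S, nocodazole release for mitosis), protein amounts in NP-40 versus SDS lysates quantified by mass spectrometry, three biological replicates.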
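Wherever solubility in G1/S (NP-40 vs SDS abundance) is given: HeLa Kyoto cells arrested at G1/S by double thymidine block, proteins quantified by TMT10plex mass spectrometry in mild NP-40 versus SDS extracts, three biological replicates.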
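Wherever thermal stability score vs G1/S (z-score of summed log2 fold changes over temperatures) is given: synchronized HeLa Kyoto cells, proteins quantified by TMT10plex mass spectrometry, three biological replicates, mitosis taken 0.5 h after nocodazole release, G1/S directly after double thymidine block.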

Row | Sequence | solubility in G1/S (log2) [1] | melting temperature ([2]; cell cycle stage: G1/S) [°C] | melting temperature ([2]; cell cycle stage: mitosis) [°C] | solubility change mitosis (log2) [3] | thermal stability score [4, 5] | thermal stability score ([4]; cell cycle stage: mitosis)
1 | MEADASVDMFSKVLEHQLLQTTKLVEEHLDSEIQKLDQMDEDELERLKEKRLQALRKAQQQKQEWLSKGHGEYREIPSERDFFQEVKESENVVCHFYRDSTFRCKILDRHLAILSKKHLETKFLKLNVEKAPFLCERLHIKVIPTLALLKDGKTQDYVVGFTDLGNTDDFTTETLEWRLGSSDILNYSGNLMEPPFQNQKKFGTNFTKLEKKTIRGKKYDSDSDDD [TXNDC9] | 0.273 | 52.4 | 52.7 | 0.0132 | 1 | 0.636
2 | MRTAGRDPVPRRSPRWRRAVPLCETSAGRRVTQLRGDDLRRPATMKGKERSPVKAKRSRGGEDSTSRGERSKKLGGSGGSNGSSSGKTDSGGGSRRSLHLDKSSSRGGSREYDTGGGSSSSRLHSYSSPSTKNSSGGGESRSSSRGGGGESRSSGAASSAPGGGDGAEYKTLKISELGSQLSDEAVEDGLFHEFKRFGDVSVKISHLSGSGSGDERVAFVNFRRPEDARAAKHARGRLVLYDRPLKIEAVYVSRRRSRSPLDKDTYPPSASVVGASVGGHRHPPGGGGGQRSLSPGGAALGYRDYRLQQLALGRLPPPPPPPLPRDLERERDYPFYERVRPAYSLEPRVGAGAGAAPFREVDEISPEDDQRANRTLFLGNLDITVTESDLRRAFDRFGVITEVDIKRPSRGQTSTYGFLKFENLDMSHRAKLAMSGKIIIRNPIKIGYGKATPTTRLWVGGLGPWVPLAALAREFDRFGTIRTIDYRKGDSWAYIQYESLDAAHAAWTHMRGFPLGGPDRRLRVDFADTEHRYQQQYLQPLPLTHYELVTDAFGHRAPDPLRGARDRTPPLLYRDRDRDLYPDSDWVPPPPPVRERSTRTAATSVPAYEPLDSLDRRRDGWSLDRDRGDRDLPSSRDQPRKRRLPEESGGRHLDRSPESDRPRKRHCAPSPDRSPELSSSRDRYNSDNDRSSRLLLERPSPIRDRRGSLEKSQGDKRDRKNSASAERDRKHRTTAPTEGKSPLKKEDRSDGSAPSTSTASSKLKSPSQKQDGGTAPVASASPKLCLAWQGMLLLKNSNFPSNMHLLQGDLQVASSLLVEGSTGGKVAQLKITQRLRLDQPKLDEVTRRIKVAGPNGYAILLAVPGSSDSRSSSSSAASDTATSTQRPLRNLVSYLKQKQAAGVISLPVGGNKDKENTGVLHAFPPCEFSQQFLDSPAKALAKSEEDYLVMIIVRGFGFQIGVRYENKKRENLALTLL [RBM15] | -0.606 | 46.7 | 48.7 | 0.598 | 2.61 | 6.38
3 | MAGLPRRIIKETQRLLAEPVPGIKAEPDESNARYFHVVIAGPQDSPFEGGTFKLELFLPEEYPMAAPKVRFMTKIYHPNVDKLGRICLDILKDKWSPALQIRTVLLSIQALLSAPNPDDPLANDVAEQWKTNEAQAIETARAWTRLYAMNNI [UBE2N] | 0.641 | 52.1 | 52.1 | 0.111 | -0.982 | -0.49
4 | MPSSLLGAAMPASTSAAALQEALENAGRLIDRQLQEDRMYPDLSELLMVSAPNNPTVSGMSDMDYPLQGPGLLSVPNLPEISSIRRVPLPPELVEQFGHMQCNCMMGVFPPISRAWLTIDSDIFMWNYEDGGDLAYFDGLSETILAVGLVKPKAGIFQPHVRHLLVLATPVDIVILGLSYANLQTGSGVLNDSLSGGMQLLPDPLYSLPTDNTYLLTITSTDNGRIFLAGKDGCLYEVAYQAEAGWFSQRCRKINHSKSSLSFLVPSLLQFTFSEDDPILQIAIDNSRNILYTRSEKGVIQVYDLGQDGQGMSRVASVSQNAIVSAAGNIARTIDRSVFKPIVQIAVIENSESLDCQLLAVTHAGVRLYFSTCPFRQPLARPNTLTLVHVRLPPGFSASSTVEKPSKVHRALYSKGILLMAASENEDNDILWCVNHDTFPFQKPMMETQMTAGVDGHSWALSAIDELKVDKIITPLNKDHIPITDSPVVVQQHMLPPKKFVLLSAQGSLMFHKLRPVDQLRHLLVSNVGGDGEEIERFFKLHQEDQACATCLILACSTAACDREVSAWATRAFFRYGGEAQMRFPTTLPPPSNVGPILGSPVYSSSPVPSGSPYPNPSFLGTPSHGIQPPAMSTPVCALGNPATQATNMSCVTGPEIVYSGKHNGICIYFSRIMGNIWDASLVVERIFKSGNREITAIESSVPCQLLESVLQELKGLQEFLDRNSQFAGGPLGNPNTTAKVQQRLIGFMRPENGNPQQMQQELQRKFHEAQLSEKISLQAIQQLVRKSYQALALWKLLCEHQFTIIVAELQKELQEQLKITTFKDLVIRDKELTGALIASLINCYIRDNAAVDGISLHLQDICPLLYSTDDAICSKANELLQRSRQVQNKTEKERMLRESLKEYQKISNQVDLSNVCAQYRQVRFYEGVVELSLTAAEKKDPQGLGLHFYKHGEPEEDIVGLQAFQERLNSYKCITDTLQELVNQSKAAPQSPSVPKKPGPPVLSSDPNMLSNEEAGHHFEQMLKLSQRSKDELFSIALYNWLIQVDLADKLLQVASPFLEPHLVRMAKVDQNRVRYMDLLWRYYEKNRSFSNAARVLSRLADMHSTEISLQQRLEYIARAILSAKSSTAISSIAADGEFLHELEEKMEVARIQLQIQETLQRQYSHHSSVQDAVSQLDSELMDITKLYGEFADPFKLAECKLAIIHCAGYSDPILVQTLWQDIIEKELSDSVTLSSSDRMHALSLKIVLLGKIYAGTPRFFPLDFIVQFLEQQVCTLNWDVGFVIQTMNEIGVPLPRLLEVYDQLFKSRDPFWNRMKKPLHLLDCIHVLLIRYVENPSQVLNCERRRFTNLCLDAVCGYLVELQSMSSSVAVQAITGNFKSLQAKLERLH [NUP155] | -0.247 | 50.6 | 48.8 | -0.126 | -2.62 | -3.4
